{
  "source": "the Human Domainome abundance scans (Beltran et al. 2025)",
  "parents": {"B1": {"name": "Ankyrin repeat and SAM domain-containing protein 6, residues 774 to 836; numbered along this chain, Q68DC2 (parent)", "chain": "DEDELTGILKKLSLEKYQPIFEEQEVDMEAFLTLTDGDLKELGIKTDGSRQQILAAISELNAG"}},
  "note": "± gives the uncertainty stated by the source.",
  "data": [
    {"variants_of": "B1", "assay": "abundance fitness (aPCA) (normalised: wild type 0, dead -1); higher = more abundant; growth selection in yeast, the domain comes from the species named", "conditions": "Homo sapiens", "values": [
      {"variant": "DEDELTGILKKLSLEKYQPVFEEQEVDMEAFLTLTDGDLKELGIKTDGSRQQILAAISELNAG", "note": "[I20V]", "abundance fitness": "0.101 ± 0.093"},
      {"variant": "DEDELTGILKKLSLEKYQPAFEEQEVDMEAFLTLTDGDLKELGIKTDGSRQQILAAISELNAG", "note": "[I20A]", "abundance fitness": "-0.111 ± 0.059"},
      {"variant": "DEDELTGILKKLSLEKYQPSFEEQEVDMEAFLTLTDGDLKELGIKTDGSRQQILAAISELNAG", "note": "[I20S]", "abundance fitness": "-0.301 ± 0.062"},
      {"variant": "DEDELTGILKKLSLEKYQPWFEEQEVDMEAFLTLTDGDLKELGIKTDGSRQQILAAISELNAG", "note": "[I20W]", "abundance fitness": "-0.252 ± 0.097"},
      {"variant": "DEDELTGILKKLSLEKYQPKFEEQEVDMEAFLTLTDGDLKELGIKTDGSRQQILAAISELNAG", "note": "[I20K]", "abundance fitness": "-0.104 ± 0.07"},
      {"variant": "DEDELTGILKKLSLEKYQPEFEEQEVDMEAFLTLTDGDLKELGIKTDGSRQQILAAISELNAG", "note": "[I20E]", "abundance fitness": "-0.299 ± 0.12"},
      {"variant": "DEDELTGILKKLSLEKYQPPFEEQEVDMEAFLTLTDGDLKELGIKTDGSRQQILAAISELNAG", "note": "[I20P]", "abundance fitness": "-0.617 ± 0.08"},
      {"variant": "DEDELTGILKKLSLEKYQPDFEEQEVDMEAFLTLTDGDLKELGIKTDGSRQQILAAISELNAG", "note": "[I20D]", "abundance fitness": "-0.091 ± 0.15"},
      {"variant": "DEDELTGILKKLSLEKYQPCFEEQEVDMEAFLTLTDGDLKELGIKTDGSRQQILAAISELNAG", "note": "[I20C]", "abundance fitness": "0.015 ± 0.074"},
      {"variant": "DEDELTGILKKLSLEKYQPMFEEQEVDMEAFLTLTDGDLKELGIKTDGSRQQILAAISELNAG", "note": "[I20M]", "abundance fitness": "0.09 ± 0.06"},
      {"variant": "DEDELTGILKKLSLEKYQPNFEEQEVDMEAFLTLTDGDLKELGIKTDGSRQQILAAISELNAG", "note": "[I20N]", "abundance fitness": "-0.015 ± 0.097"},
      {"variant": "DEDELTGILKKLSLEKYQPQFEEQEVDMEAFLTLTDGDLKELGIKTDGSRQQILAAISELNAG", "note": "[I20Q]", "abundance fitness": "-0.083 ± 0.061"},
      {"variant": "DEDELTGILKKLSLEKYQPFFEEQEVDMEAFLTLTDGDLKELGIKTDGSRQQILAAISELNAG", "note": "[I20F]", "abundance fitness": "-0.352 ± 0.17"},
      {"variant": "DEDELTGILKKLSLEKYQPGFEEQEVDMEAFLTLTDGDLKELGIKTDGSRQQILAAISELNAG", "note": "[I20G]", "abundance fitness": "-0.494 ± 0.065"},
      {"variant": "DEDELTGILKKLSLEKYQPRFEEQEVDMEAFLTLTDGDLKELGIKTDGSRQQILAAISELNAG", "note": "[I20R]", "abundance fitness": "-0.046 ± 0.05"},
      {"variant": "DEDELTGILKKLSLEKYQPHFEEQEVDMEAFLTLTDGDLKELGIKTDGSRQQILAAISELNAG", "note": "[I20H]", "abundance fitness": "-0.213 ± 0.16"},
      {"variant": "DEDELTGILKKLSLEKYQPTFEEQEVDMEAFLTLTDGDLKELGIKTDGSRQQILAAISELNAG", "note": "[I20T]", "abundance fitness": "-0.096 ± 0.068"},
      {"variant": "DEDELTGILKKLSLEKYQPYFEEQEVDMEAFLTLTDGDLKELGIKTDGSRQQILAAISELNAG", "note": "[I20Y]", "abundance fitness": "-0.273 ± 0.072"},
      {"variant": "DEDELTGILKKLSLEKYQPLFEEQEVDMEAFLTLTDGDLKELGIKTDGSRQQILAAISELNAG", "note": "[I20L]", "abundance fitness": "-0.124 ± 0.06"},
      {"variant": "DEDELTGILKKLSLEKYWPIFEEQEVDMEAFLTLTDGDLKELGIKTDGSRQQILAAISELNAG", "note": "[Q18W]", "abundance fitness": "-0.31 ± 0.057"},
      {"variant": "DEDELTGILKKLSLEKYYPIFEEQEVDMEAFLTLTDGDLKELGIKTDGSRQQILAAISELNAG", "note": "[Q18Y]", "abundance fitness": "-0.539 ± 0.2"},
      {"variant": "DEDELTGILKKLSLEKYVPIFEEQEVDMEAFLTLTDGDLKELGIKTDGSRQQILAAISELNAG", "note": "[Q18V]", "abundance fitness": "-0.12 ± 0.057"},
      {"variant": "DEDELTGILKKLSLEKYTPIFEEQEVDMEAFLTLTDGDLKELGIKTDGSRQQILAAISELNAG", "note": "[Q18T]", "abundance fitness": "-0.076 ± 0.075"},
      {"variant": "DEDELTGILKKLSLEKYSPIFEEQEVDMEAFLTLTDGDLKELGIKTDGSRQQILAAISELNAG", "note": "[Q18S]", "abundance fitness": "-0.075 ± 0.075"},
      {"variant": "DEDELTGILKKLSLEKYQVIFEEQEVDMEAFLTLTDGDLKELGIKTDGSRQQILAAISELNAG", "note": "[P19V]", "abundance fitness": "-0.346 ± 0.055"},
      {"variant": "DEDELTGILKKLSLEKYQYIFEEQEVDMEAFLTLTDGDLKELGIKTDGSRQQILAAISELNAG", "note": "[P19Y]", "abundance fitness": "-0.234 ± 0.054"},
      {"variant": "DEDELTGILKKLSLEKYQCIFEEQEVDMEAFLTLTDGDLKELGIKTDGSRQQILAAISELNAG", "note": "[P19C]", "abundance fitness": "-0.247 ± 0.057"},
      {"variant": "DEDELTGILKKLSLEKYQFIFEEQEVDMEAFLTLTDGDLKELGIKTDGSRQQILAAISELNAG", "note": "[P19F]", "abundance fitness": "-0.285 ± 0.051"},
      {"variant": "DEDELTGILKKLSLEKYQIIFEEQEVDMEAFLTLTDGDLKELGIKTDGSRQQILAAISELNAG", "note": "[P19I]", "abundance fitness": "-0.509 ± 0.05"},
      {"variant": "DEDELTGILKKLSLEKYQGIFEEQEVDMEAFLTLTDGDLKELGIKTDGSRQQILAAISELNAG", "note": "[P19G]", "abundance fitness": "-0.116 ± 0.055"},
      {"variant": "DEDELTGILKKLSLEKYQWIFEEQEVDMEAFLTLTDGDLKELGIKTDGSRQQILAAISELNAG", "note": "[P19W]", "abundance fitness": "-0.208 ± 0.14"},
      {"variant": "DEDELTGILKKLSLEKYQKIFEEQEVDMEAFLTLTDGDLKELGIKTDGSRQQILAAISELNAG", "note": "[P19K]", "abundance fitness": "-0.416 ± 0.12"},
      {"variant": "DEDELTGILKKLSLEKYQQIFEEQEVDMEAFLTLTDGDLKELGIKTDGSRQQILAAISELNAG", "note": "[P19Q]", "abundance fitness": "-0.21 ± 0.16"},
      {"variant": "DEDELTGILKKLSLEKYQAIFEEQEVDMEAFLTLTDGDLKELGIKTDGSRQQILAAISELNAG", "note": "[P19A]", "abundance fitness": "-0.073 ± 0.068"},
      {"variant": "DEDELTGILKKLSLEKYQTIFEEQEVDMEAFLTLTDGDLKELGIKTDGSRQQILAAISELNAG", "note": "[P19T]", "abundance fitness": "-0.138 ± 0.078"},
      {"variant": "DEDELTGILKKLSLEKYQLIFEEQEVDMEAFLTLTDGDLKELGIKTDGSRQQILAAISELNAG", "note": "[P19L]", "abundance fitness": "-0.456 ± 0.072"},
      {"variant": "DEDELTGILKKLSLEKYQHIFEEQEVDMEAFLTLTDGDLKELGIKTDGSRQQILAAISELNAG", "note": "[P19H]", "abundance fitness": "0.005 ± 0.048"},
      {"variant": "DEDELTGILKKLSLEKYQRIFEEQEVDMEAFLTLTDGDLKELGIKTDGSRQQILAAISELNAG", "note": "[P19R]", "abundance fitness": "-0.116 ± 0.057"},
      {"variant": "DEDELTGILKKLSLEKYQDIFEEQEVDMEAFLTLTDGDLKELGIKTDGSRQQILAAISELNAG", "note": "[P19D]", "abundance fitness": "-0.023 ± 0.083"},
      {"variant": "DEDELTGILKKLSLEKYQSIFEEQEVDMEAFLTLTDGDLKELGIKTDGSRQQILAAISELNAG", "note": "[P19S]", "abundance fitness": "-0.094 ± 0.04"},
      {"variant": "DEDELTGILKKLSLEKYQNIFEEQEVDMEAFLTLTDGDLKELGIKTDGSRQQILAAISELNAG", "note": "[P19N]", "abundance fitness": "-0.059 ± 0.071"},
      {"variant": "DEDELTGILKKLSLEKYQMIFEEQEVDMEAFLTLTDGDLKELGIKTDGSRQQILAAISELNAG", "note": "[P19M]", "abundance fitness": "-0.035 ± 0.15"}
    ]}
  ]
}
